Experiments:
[1] = target: T1, CjFur Y68A Y68A (Campylobacter jejuni NCTC11168?) (UniProt P0C631); experiment: EMSA; settings: 20 mM Bis-Tris borate pH 7.4, 50 mM KCl, 3 mM MgCl2, 5% glycerol, 0.1% Triton X-100, 0.1 ug poly dI-dC, 2 nM DNA, 45 min on ice; holo: +50 uM MnCl2 (100 uM in …)
T1 sequence: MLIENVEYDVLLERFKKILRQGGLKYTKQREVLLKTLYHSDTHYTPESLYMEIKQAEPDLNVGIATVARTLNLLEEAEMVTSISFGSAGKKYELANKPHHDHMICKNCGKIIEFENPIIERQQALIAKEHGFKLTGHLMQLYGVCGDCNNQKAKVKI

[2] = target: T2, CjFur R20E R20E (Campylobacter jejuni NCTC11168?) (UniProt P0C631); experiment: EMSA; settings: 20 mM Bis-Tris borate pH 7.4, 50 mM KCl, 3 mM MgCl2, 5% glycerol, 0.1% Triton X-100, 0.1 ug poly dI-dC, 2 nM DNA, 45 min on ice; holo: +50 uM MnCl2 (100 uM in …)
T2 sequence: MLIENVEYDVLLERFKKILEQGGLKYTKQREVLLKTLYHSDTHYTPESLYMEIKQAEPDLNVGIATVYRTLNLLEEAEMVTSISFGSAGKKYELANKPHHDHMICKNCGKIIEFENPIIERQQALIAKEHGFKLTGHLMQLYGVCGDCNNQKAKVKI

[3] = target: T3, CjFur K28E K28E (Campylobacter jejuni NCTC11168?) (UniProt P0C631); experiment: EMSA; settings: 20 mM Bis-Tris borate pH 7.4, 50 mM KCl, 3 mM MgCl2, 5% glycerol, 0.1% Triton X-100, 0.1 ug poly dI-dC, 2 nM DNA, 45 min on ice; holo: +50 uM MnCl2 (100 uM in …)
T3 sequence: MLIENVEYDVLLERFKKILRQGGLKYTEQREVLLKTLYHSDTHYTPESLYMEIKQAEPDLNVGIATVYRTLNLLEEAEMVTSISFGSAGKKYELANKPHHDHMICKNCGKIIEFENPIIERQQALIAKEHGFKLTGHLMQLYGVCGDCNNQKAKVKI

[4] = target: T4, CjFur R69E R69E (Campylobacter jejuni NCTC11168?) (UniProt P0C631); experiment: EMSA; settings: 20 mM Bis-Tris borate pH 7.4, 50 mM KCl, 3 mM MgCl2, 5% glycerol, 0.1% Triton X-100, 0.1 ug poly dI-dC, 2 nM DNA, 45 min on ice; holo: +50 uM MnCl2 (100 uM in …)
T4 sequence: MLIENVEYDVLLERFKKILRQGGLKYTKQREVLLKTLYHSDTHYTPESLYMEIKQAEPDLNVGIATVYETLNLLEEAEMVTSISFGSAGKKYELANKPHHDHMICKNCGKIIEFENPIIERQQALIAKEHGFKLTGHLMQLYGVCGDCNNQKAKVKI

[5] = target: T5, CjFurΔS3 H99A;H137A (Campylobacter jejuni NCTC11168?) (UniProt P0C631); experiment: EMSA; settings: 20 mM Bis-Tris borate pH 7.4, 50 mM KCl, 3 mM MgCl2, 5% glycerol, 0.1% Triton X-100, 0.1 ug poly dI-dC, 2 nM DNA, 45 min on ice; holo: +50 uM MnCl2 (100 uM in …)
T5 sequence: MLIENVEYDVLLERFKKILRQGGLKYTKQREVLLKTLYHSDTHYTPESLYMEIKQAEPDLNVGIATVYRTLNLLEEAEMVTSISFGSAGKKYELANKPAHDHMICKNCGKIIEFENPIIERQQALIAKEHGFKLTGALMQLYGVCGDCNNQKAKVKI

[6] = target: T6, CjFur R30E R30E (Campylobacter jejuni NCTC11168?) (UniProt P0C631); experiment: EMSA; settings: 20 mM Bis-Tris borate pH 7.4, 50 mM KCl, 3 mM MgCl2, 5% glycerol, 0.1% Triton X-100, 0.1 ug poly dI-dC, 2 nM DNA, 45 min on ice; holo: +50 uM MnCl2 (100 uM in …)
T6 sequence: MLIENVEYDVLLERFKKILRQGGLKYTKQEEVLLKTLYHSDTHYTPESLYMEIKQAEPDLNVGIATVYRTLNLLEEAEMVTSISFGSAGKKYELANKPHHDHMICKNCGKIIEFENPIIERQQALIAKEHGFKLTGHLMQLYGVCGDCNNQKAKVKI

[7] = target: T7, CjFur K25E K25E (Campylobacter jejuni NCTC11168?) (UniProt P0C631); experiment: EMSA; settings: 20 mM Bis-Tris borate pH 7.4, 50 mM KCl, 3 mM MgCl2, 5% glycerol, 0.1% Triton X-100, 0.1 ug poly dI-dC, 2 nM DNA, 45 min on ice; holo: +50 uM MnCl2 (100 uM in …)
T7 sequence: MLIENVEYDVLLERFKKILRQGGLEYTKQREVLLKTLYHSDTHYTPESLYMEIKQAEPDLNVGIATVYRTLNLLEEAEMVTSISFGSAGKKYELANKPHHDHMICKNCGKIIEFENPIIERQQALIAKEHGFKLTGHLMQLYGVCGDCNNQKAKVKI

[8] = target: T8, CjFur K17E K17E (Campylobacter jejuni NCTC11168?) (UniProt P0C631); experiment: EMSA; settings: 20 mM Bis-Tris borate pH 7.4, 50 mM KCl, 3 mM MgCl2, 5% glycerol, 0.1% Triton X-100, 0.1 ug poly dI-dC, 2 nM DNA, 45 min on ice; holo: +50 uM MnCl2 (100 uM in …)
T8 sequence: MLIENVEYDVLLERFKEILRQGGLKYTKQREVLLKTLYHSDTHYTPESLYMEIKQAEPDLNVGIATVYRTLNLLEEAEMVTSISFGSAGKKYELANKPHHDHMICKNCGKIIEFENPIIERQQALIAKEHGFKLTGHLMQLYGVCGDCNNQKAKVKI

[9] = target: T9, CjFur WT (Campylobacter jejuni NCTC11168?) (UniProt P0C631); experiment: EMSA; settings: 20 mM Bis-Tris borate pH 7.4, 50 mM KCl, 3 mM MgCl2, 5% glycerol, 0.1% Triton X-100, 0.1 ug poly dI-dC, 2 nM DNA, 45 min on ice; holo: +50 uM MnCl2 (100 uM in …)
T9 sequence: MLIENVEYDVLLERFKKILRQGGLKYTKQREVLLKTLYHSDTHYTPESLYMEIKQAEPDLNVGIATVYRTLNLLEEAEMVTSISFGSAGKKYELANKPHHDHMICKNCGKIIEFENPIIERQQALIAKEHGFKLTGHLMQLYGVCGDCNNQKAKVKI

[10] = target: T10, CjFurΔS2 H43A;H102A (Campylobacter jejuni NCTC11168?) (UniProt P0C631); experiment: EMSA; settings: 20 mM Bis-Tris borate pH 7.4, 50 mM KCl, 3 mM MgCl2, 5% glycerol, 0.1% Triton X-100, 0.1 ug poly dI-dC, 2 nM DNA, 45 min on ice; holo: +50 uM MnCl2 (100 uM in …)
T10 sequence: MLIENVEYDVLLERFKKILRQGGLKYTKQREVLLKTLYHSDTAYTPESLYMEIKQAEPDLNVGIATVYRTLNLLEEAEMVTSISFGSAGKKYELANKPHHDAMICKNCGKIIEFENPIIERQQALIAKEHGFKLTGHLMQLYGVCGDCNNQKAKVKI

[11] = target: the molecule itself; experiment: crystal structure; CjFur (7.5 ug/uL) crystallised in 0.1 M Bis-Tris pH 5.5, 0.25 M MgFormate, 25% PEG3350; molecular replacement; 1.8 A; form with zinc in S1 only (CjFurZn)
[12] = target: CjFur R30E (UniProt P0C631 1-157, R30E); experiment: EMSA; holo, 50 uM MnCl2; 0-100 nM protein; 20 mM Bis-Tris borate pH 7.4, 50 mM KCl, 3 mM MgCl2, 5% glycerol, 0.1% Triton X-100, 0.1 ug poly dI-dC, 2 nM DNA, 45 min on ice; holo: +50 uM MnCl2 (100 uM in gel); gel at 4 C; settings: protein: recombinant; tags: N-terminal Strep tag, TEV-cleaved; chain copies: 2; label: 5' Cy5 on both strands; blunt
[13] = target: CjFur Y68A (UniProt P0C631 1-157, Y68A); experiment: as above; settings: protein: recombinant; tags: N-terminal Strep tag, TEV-cleaved; chain copies: 2; label: 5' Cy5 on both strands; blunt
[14] = target: CjFur R69E (UniProt P0C631 1-157, R69E); experiment: as above; settings: protein: recombinant; tags: N-terminal Strep tag, TEV-cleaved; chain copies: 2; label: 5' Cy5 on both strands; blunt
[15] = target: CjFur K25E (UniProt P0C631 1-157, K25E); experiment: as above; settings: protein: recombinant; tags: N-terminal Strep tag, TEV-cleaved; chain copies: 2; label: 5' Cy5 on both strands; blunt
[16] = target: T11, CjFur WT (UniProt P0C631 1-157); experiment: EMSA; holo, 50 uM MnCl2; 0-100 nM protein; two bound species; 20 mM Bis-Tris borate pH 7.4, 50 mM KCl, 3 mM MgCl2, 5% glycerol, 0.1% Triton X-100, 0.1 ug poly dI-dC, 2 nM DNA, 45 min on ice; holo: +50 uM MnCl2 (100 uM in gel); gel at 4 C; settings: protein: recombinant; tags: N-terminal Strep tag, TEV-cleaved; chain copies: 2; label: 5' Cy5 on both strands; blunt
T11 sequence: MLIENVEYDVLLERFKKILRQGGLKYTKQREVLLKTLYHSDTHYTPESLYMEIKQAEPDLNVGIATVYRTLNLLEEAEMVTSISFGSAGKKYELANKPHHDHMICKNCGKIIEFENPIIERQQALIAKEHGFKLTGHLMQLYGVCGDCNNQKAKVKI

GGGAAAAGAGCCAAATTTAGGTGTTATCATCAATGCTGCTAATGAAGTTGGTGTTTATAATTTTTTAGAAAATAAAAGTGGATTTTTAGACATTGCTAAATGCATTTTTAAAGCCCTTGATCATTTTGGAGTACCTAAAATTTCAAGCATAGAAGAAGTTTTTGAGTATGATTTTAAAACAAGAGAGTATTTAAGGAGTTAAA (double strand) [cj1345c promoter region]
binding [1]: binds more weakly
binding [2]: no binding
binding [3]: no binding
binding [4]: no binding
binding [5]: binds more weakly
binding [6]: binds more weakly
binding [7]: no binding
binding [8]: binds more weakly
binding [9]: binds
binding [10]: binds more weakly

B1: Campylobacter jejuni Fur (ferric uptake regulator), wild type (natural protein)
chain: MLIENVEYDVLLERFKKILRQGGLKYTKQREVLLKTLYHSDTHYTPESLYMEIKQAEPDLNVGIATVYRTLNLLEEAEMVTSISFGSAGKKYELANKPHHDHMICKNCGKIIEFENPIIERQQALIAKEHGFKLTGHLMQLYGVCGDCNNQKAKVKI
notes: Ferric uptake regulator Fur of Campylobacter jejuni; wild type; in the crystal one zinc per protomer in the S1 site (C105, C108, C145, C148), S2 and S3 sites empty; Crystallised form is called CjFurZn (zinc only in S1); the earlier structure 4ETS of the same protein is called CjFurZn2 (zinc in S1 and S3); also called CjFur; CjFurZn; source: E. coli Rosetta, purified (Strep-TACTIN beads, TEV …)
stoichiometry N [11]: 2

B2: katA promoter 60 bp (dsDNA)
DNA 1: ACTGAATAATTGCATTTTATTGATAATAAATTTCAAAATAAATTTAGTTTTTTTATATTA
DNA 2: TAATATAAAAAAACTAAATTTATTTTGAAATTTATTATCAATAAAATGCAATTATTCAGT
binding result [12]: no binding
binding result [13]: no binding
binding result [14]: no binding
binding result [15]: no binding
binding result [16]: binds

Source: publication PMC5940780, “Functional insights into the interplay between DNA interaction and metal coordination in ferric uptake regulators” (Scientific Reports, 2018)
